Assay results reported in patent US20180134794A1 (Regeneron, published 2018).

Columns and labels:
[1] = target: T1, human MET (c-Met, hepatocyte growth factor receptor), endogenous on human cell lines (human, UniProt P08581 25-1390); assay: cell-based or functional assay
[2] = target: T1, human MET (c-Met, hepatocyte growth …); assay: flow cytometry, MDA-MB-231 cells (endogenous MET, low), antibody 10 ug/ml
Method: (§1) After one additional wash with FACS buffer, samples were fixed with Cytofix (BD Biosciences, #554655), filtered with FACS buffer and run on an iQue flow cytometer (Intelicyte). Mean fluorescence intensity (MFI) data was determined using FlowJo software (FlowJo LLC).

[3] = target: T1, human MET (c-Met, hepatocyte growth …); assay: flow cytometry, MKN-45 cells (endogenous MET), antibody 10 ug/ml
Method: as §1

[4] = target: T1, human MET (c-Met, hepatocyte growth …); assay: flow cytometry, EBC-1 cells (endogenous MET), antibody 10 ug/ml
Method: as §1

[5] = target: T1, human MET (c-Met, hepatocyte growth …); assay: flow cytometry, NCI-H1993 cells (endogenous MET), antibody 10 ug/ml; expressed as fold above unstained
Method: as §1

[6] = target: T1, human MET (c-Met, hepatocyte growth …); assay: flow cytometry, A549 cells (endogenous MET), antibody 10 ug/ml
Method: as §1

[7] = target: T1, human MET (c-Met, hepatocyte growth …); assay: flow cytometry, Hs746t cells (endogenous MET), antibody 10 ug/ml
Method: as §1

[8] = target: T1, human MET (c-Met, hepatocyte growth …); assay: flow cytometry, SNU-5 cells (endogenous MET), antibody 10 ug/ml
Method: as §1

[9] = target: T1, human MET (c-Met, hepatocyte growth …); assay: flow cytometry, U87MG cells (endogenous MET, low), antibody 10 ug/ml
Method: as §1

[10] = target: T1, human MET (c-Met, hepatocyte growth …); assay: cell-based or functional assay; remark: listed apart in the source

T1 sequence (P08581 25-1390 limits assumed, form in doubt): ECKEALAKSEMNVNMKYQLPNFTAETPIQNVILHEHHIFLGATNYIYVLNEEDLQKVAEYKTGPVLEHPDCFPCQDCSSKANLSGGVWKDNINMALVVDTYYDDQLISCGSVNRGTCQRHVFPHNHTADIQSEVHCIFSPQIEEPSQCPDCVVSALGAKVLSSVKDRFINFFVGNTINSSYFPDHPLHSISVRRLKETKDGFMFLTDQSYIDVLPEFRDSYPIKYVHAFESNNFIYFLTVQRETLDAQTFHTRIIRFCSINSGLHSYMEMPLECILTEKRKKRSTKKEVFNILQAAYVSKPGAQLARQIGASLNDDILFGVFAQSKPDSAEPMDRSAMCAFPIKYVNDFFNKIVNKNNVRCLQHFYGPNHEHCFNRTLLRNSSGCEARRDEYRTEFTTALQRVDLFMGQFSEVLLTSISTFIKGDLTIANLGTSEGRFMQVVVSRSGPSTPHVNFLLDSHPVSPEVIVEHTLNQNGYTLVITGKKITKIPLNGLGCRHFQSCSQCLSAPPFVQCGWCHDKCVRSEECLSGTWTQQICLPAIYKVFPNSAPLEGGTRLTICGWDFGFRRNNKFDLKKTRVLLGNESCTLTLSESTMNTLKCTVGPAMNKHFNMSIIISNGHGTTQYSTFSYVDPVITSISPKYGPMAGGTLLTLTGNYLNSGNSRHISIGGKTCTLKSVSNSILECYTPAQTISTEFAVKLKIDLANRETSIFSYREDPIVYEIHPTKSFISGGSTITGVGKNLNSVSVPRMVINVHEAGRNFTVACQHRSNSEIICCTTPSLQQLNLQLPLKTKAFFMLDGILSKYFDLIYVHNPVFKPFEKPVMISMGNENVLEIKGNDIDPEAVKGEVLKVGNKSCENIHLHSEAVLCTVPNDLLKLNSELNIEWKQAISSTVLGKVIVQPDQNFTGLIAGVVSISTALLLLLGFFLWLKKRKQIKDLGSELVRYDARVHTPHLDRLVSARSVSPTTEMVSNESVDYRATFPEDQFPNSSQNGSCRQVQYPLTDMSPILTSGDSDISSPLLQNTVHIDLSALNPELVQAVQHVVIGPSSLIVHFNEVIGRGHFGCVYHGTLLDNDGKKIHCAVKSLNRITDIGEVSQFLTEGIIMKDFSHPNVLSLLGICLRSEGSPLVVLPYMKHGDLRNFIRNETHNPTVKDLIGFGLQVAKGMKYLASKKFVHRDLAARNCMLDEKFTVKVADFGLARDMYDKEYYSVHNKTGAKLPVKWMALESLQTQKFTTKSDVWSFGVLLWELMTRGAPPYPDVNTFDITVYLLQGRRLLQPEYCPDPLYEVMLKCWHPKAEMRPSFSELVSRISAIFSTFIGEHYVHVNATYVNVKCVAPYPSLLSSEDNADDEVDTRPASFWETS

% Inhibition (HEK293/SRE-Luc Blocking Activity, 1 h mAb pre-bind) [1]: 95%
EC50 (Ligand (HGF)-Independent HEK293/SRE-Luc Activation) [1]: 0.057 nM
Fold Response (Ligand (HGF)-Independent HEK293/SRE-Luc Activation) [1]: 1.8 fold
IC50 (HEK293/SRE-Luc Blocking Activity, 1 h mAb pre-bind) [1]: 0.024 nM
FACS Binding (MFI Fold Above Isotype Control) [2]: 12 fold
FACS Binding (MFI Fold Above Isotype Control) [3]: 156 fold
FACS Binding (MFI Fold Above Isotype Control) [4]: 252 fold
FACS Binding (MFI fold above unstained, per footnote) [5]: 188 fold
FACS Binding (MFI Fold Above Isotype Control) [6]: 10 fold
FACS Binding (MFI Fold Above Isotype Control) [7]: 34 fold
FACS Binding (MFI Fold Above Isotype Control) [8]: 454 fold
FACS Binding (MFI Fold Above Isotype Control) [9]: 18 fold
Relative MET Level, NCI-H596 cells, antibody 5 ug/ml, 18 hours, immunoblot [10]: 0.24 relative to control (hFc)
B1: H4H14639D (bispecific antibody, human IgG4, V domains shown)
VH 1: EVQLVESGGGLVQPGTSLRLSCAASGFTFDDYAMHWVRQAPGKGLEWVSGITWNSYNIDYADSVKGRFTISRDNAKNSLYLQMNSLRAEDTALYYCAKDDDYSNYVYFDYWGQGTLVTVSS
VH 2: EVQLVESGGGLVQPGGSLRLSCAASGFIVTTNYMTWLRQAPGKGLEWVSLIYSSGHTYYADSVKGRFTISRHNSKNTLYLQMDSLRAEDTAVYYCASAFAADVFDIWGQGTMVTVSS
VL: not shown
notes: human IgG4 Fc; also called No. 122; MET×MET bispecific antibody
